Laboratory results as given in the supplement of paper PMC11246515.
± gives the standard deviation of the averaged measurements.

Test: total protein half-life in vivo (active degradation + dilution); higher = more stable protein
[1] = E. coli NCM3722 delta-clpP delta-lon delta-hslV, growth: N-lim chemostat, doubling time 6 h
[2] = E. coli NCM3722 delta-clpP, growth: N-lim chemostat, doubling time 6 h
[3] = E. coli NCM3722 delta-hslV, growth: N-lim chemostat, doubling time 6 h
[4] = E. coli NCM3722 delta-lon, growth: N-lim chemostat, doubling time 6 h
[5] = E. coli NCM3722 delta-smpB, growth: N-lim chemostat, doubling time 6 h
[6] = wild type E. coli NCM3722, growth: C-lim chemostat, doubling time 3 h
[7] = wild type E. coli NCM3722, growth: C-lim chemostat, doubling time 12 h
[8] = wild type E. coli NCM3722, growth: N-lim chemostat, doubling time 6 h
[9] = wild type E. coli NCM3722, growth: N-lim chemostat, doubling time 12 h
[10] = wild type E. coli NCM3722, growth: P-lim chemostat, doubling time 6 h
[11] = wild type E. coli NCM3722, growth: P-lim chemostat, doubling time 12 h
[12] = wild type E. coli NCM3722, growth: C-lim chemostat, doubling time 6 h

| Sequence | total protein half-life in vivo [1] [h] | total protein half-life in vivo [2] [h] | total protein half-life in vivo [3] [h] | total protein half-life in vivo [4] [h] | total protein half-life in vivo [5] [h] | total protein half-life in vivo [6] [h] | total protein half-life in vivo [7] [h] | total protein half-life in vivo [8] [h] | total protein half-life in vivo [9] [h] | total protein half-life in vivo [10] [h] | total protein half-life in vivo [11] [h] | total protein half-life in vivo [12] [h] |
| --- | --- | --- | --- | --- | --- | --- | --- | --- | --- | --- | --- | --- |
| MVDQVKVVADDQAPAEQSLRRNLTNRHIQLIAIGGAIGTGLFMGSGKTISLAGPSIIFVYMIIGFMLFFVMRAMGELLLSNLEYKSFSDFASDLLGPWAGYFTGWTYWFCWVVTGMADVVAITAYAQFWFPDLSDWVASLAVIVLLLTLNLATVKMFGEMEFWFAMIKIVAIVSLIVVGLVMVAMHFQSPTGVEASFAHLWNDGGWFPKGLSGFFAGFQIAVFAFVGIELVGTTAAETKDPEKSLPRAINSIPIRIIMFYVFALIVIMSVTPWSSVVPEKSPFVELFVLVGLPAAASVINFVVLTSAASSANSGVFSTSRMLFGLAQEGVAPKAFAKLSKRAVPAKGLTFSCICLLGGVVMLYVNPSVIGAFTMITTVSAILFMFVWTIILCSYLVYRKQRPHLHEKSIYKMPLGKLMCWVCMAFFVFVVVLLTLEDDTRQALLVTPLWFIALGLGWLFIGKKRAAELRK [P0AAE0] | 4.28 ± 0.25 | 3.4 ± 0.0052 | 3.26 ± 0.38 | 2.95 ± 0.22 | 3.33 ± 0.25 | 3.28 ± 0.5 | 8.36 ± 0.32 | 3.26 ± 0.58 | 5 ± 0.22 | 4.74 ± 0.37 | 6.57 ± 0.66 | – |
| MVDSKKRPGKDLDRIDRNILNELQKDGRISNVELSKRVGLSPTPCLERVRRLERQGFIQGYTALLNPHYLDASLLVFVEITLNRGAPDVFEQFNTAVQKLEEIQECHLVSGDFDYLLKTRVPDMSAYRKLLGETLLRLPGVNDTRTYVVMEEVKQSNRLVIKTR [P0ACJ0] | 6.5 ± 0.13 | 6.63 ± 0.76 | 6.65 ± 0.079 | 7.54 ± 0.57 | 6.08 ± 0.29 | 3.27 ± 0.28 | 10.8 ± 0.19 | 5.82 ± 0.65 | 12 ± 0.67 | 5.73 ± 0.45 | 14 ± 0.69 | 6.23 ± 0.33 |
| MVDTTQTTTEKKLTQSDIRGVFLRSNLFQGSWNFERMQALGFCFSMVPAIRRLYPENNEARKQAIRRHLEFFNTQPFVAAPILGVTLALEEQRANGAEIDDGAINGIKVGLMGPLAGVGDPIFWGTVRPVFAALGAGIAMSGSLLGPLLFFILFNLVRLATRYYGVAYGYSKGIDIVKDMGGGFLQKLTEGASILGLFVMGALVNKWTHVNIPLVVSRITDQTGKEHVTTVQTILDQLMPGLVPLLLTFACMWLLRKKVNPLWIIVGFFVIGIAGYACGLLGL | 6.27 ± 0.37 | 6.2 ± 0.14 | 5.93 ± 0.077 | 6.13 ± 0.11 | 6.28 ± 0.28 | 3.168 ± 0.014 | 13.8 ± 2.9 | 6.51 ± 0.75 | 12.8 ± 1.1 | 6.24 ± 0.064 | 13.56 ± 0.072 | 6.21 ± 0.26 |
| MVERTAVFPAGRHSLYAEHRYSAAIRSGDLLFVSGQVGSREDGTPEPDFQQQVRLAFDNLHATLAAAGCTFDDIIDVTSFHTDPENQFEDIMTVKNEIFSAPPYPNWTAVGVTWLAGFDFEIKVIARIPEQ | 5.72 ± 0.59 | 4.29 ± 0.47 | 5.62 ± 1.5 | 5.45 ± 0.62 | 4.61 ± 0.57 | 3.61 | 11.5 ± 1.1 | 5.02 ± 0.087 | 8.83 ± 0.12 | 5.604 ± 0.05 | 12.1 ± 0.51 | 6.32 |
| MVIGPFINASAVLLGGVLGALLSQRLPERIRVSMTSIFGLASLGIGILLVVKCANLPAMVLATLLGALIGEICLLEKGVNTAVAKAQNLFRHSRKKPAHESFIQNYVAIIVLFCASGTGIFGAMNEGMTGDPSILIAKSFLDFFTAMIFACSLGIAVSVISIPLLIIQLTLAWAAALILPLTTPSMMADFSAVGGLLLLATGLRICGIKMFPVVNMLPALLLAMPLSAAWTAWFA | – | 6.45 | – | – | – | – | – | – | 10.8 | – | – | – |
| MVIKAQSPAGFAEEYIIESIWNNRFPPGTILPAERELSELIGVTRTTLREVLQRLARDGWLTIQHGKPTKVNNFWETSGLNILETLARLDHESVPQLIDNLLSVRTNISTIFIRTAFRQHPDKAQEVLATANEVADHADAFAELDYNIFRGLAFASGNPIYGLILNGMKGLYTRIGRHYFANPEARSLALGFYHKLSALCSEGAHDQVYETVRRYGHESGEIWHRMQKNLPGDLAIQGR [P0A8V6] | 5.22 ± 0.34 | 5.72 ± 0.28 | 5.12 ± 0.56 | 6.05 ± 0.6 | 5.01 ± 0.18 | 2.88 ± 0.091 | 9.92 ± 0.94 | 5.93 ± 0.23 | 10.3 ± 0.15 | 4.58 ± 0.83 | 8.62 ± 1.3 | 6.27 ± 0.67 |
| MVKKSEFERGDIVLVGFDPASGHEQQGAGRPALVLSVQAFNQLGMTLVAPITQGGNFARYAGFSVPLHCEEGDVHGVVLVNQVRMMDLHARLAKRIGLAADEVVEEALLRLQAVVE | – | – | – | – | – | – | – | – | 6.76 | – | 10.7 | 6.08 |
| MVKSTPCITIDFMNMSQLTERTFTPSESLSSLSLFLSLARGQCRPGKFWHRRSFRQKFLLRSLIMPRLSVEWMNELSHWPNLNVLLTRQPRLPVRLHRPYLAANLSRKQLLEALRYHYALLRECMSAEEFSLYLNTPGLQLAKLEGKNGEQFTLELTMMISMDKEGDSTILFRNSEGIPLAEITFTLCEYQGKRTMFIGGLQGAKWEIPHQEIQNATKACHGLFPKRLVMEAACLFAQRLQVEQIIAVSNETHIYRSLRYRDKEGKIHADYNAFWESVGGVCDAERHYRLPAQIARKEIAEIASKKRAEYRRRYEMLDAIQPQMATMFRG | 3.06 ± 0.041 | – | 0.723 | 1.38 ± 0.35 | 0.646 ± 0.039 | 0.953 ± 0.067 | 1.31 | 1.16 ± 0.38 | 1.2 ± 0.25 | – | 2.33 | 0.7307 ± 0.0013 |
